What was measured:
[1] = target: Butyrophilin Subfamily 2 Member A1 (BTN2A1) (human) (UniProt Q7KYR7); assay: cell-based or functional assay
[2] = target: BTN2A1; BTN3A1; BTN3A2/A3 peptide on (human); assay: luciferase killing assay, 20 h; T cells + luciferase target cells (5:1) + purified GAB + 30 µM pamidronate; fusion: anti-CD3 scFv (GAB)
[3] = target: BTN3A1/A2/A3; assay: cell-based or functional assay
[4] = target: BTN2A1; BTN3A1; BTN3A2/A3 peptide on (human); assay: luciferase killing assay, 20 h; T cells + three luciferase tumour cell lines (10:1) + purified GAB + 30 µM pamidronate; fusion: anti-CD3 scFv (GAB)

Sequence of UniProt Q7KYR7 (Q7KYR7 29-527): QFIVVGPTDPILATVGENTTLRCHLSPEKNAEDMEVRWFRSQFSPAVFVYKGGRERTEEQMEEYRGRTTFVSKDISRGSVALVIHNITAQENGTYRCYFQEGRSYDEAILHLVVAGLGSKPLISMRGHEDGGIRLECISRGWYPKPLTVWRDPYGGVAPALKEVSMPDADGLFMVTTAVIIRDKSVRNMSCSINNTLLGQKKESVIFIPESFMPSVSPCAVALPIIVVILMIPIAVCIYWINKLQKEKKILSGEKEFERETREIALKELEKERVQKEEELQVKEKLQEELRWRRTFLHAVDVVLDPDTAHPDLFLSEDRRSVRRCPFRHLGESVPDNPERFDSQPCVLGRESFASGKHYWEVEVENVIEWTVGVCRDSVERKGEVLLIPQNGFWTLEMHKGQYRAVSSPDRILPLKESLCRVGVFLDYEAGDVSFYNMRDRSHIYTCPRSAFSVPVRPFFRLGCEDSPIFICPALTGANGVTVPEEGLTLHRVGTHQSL

B1: Vγ9Vδ2TCR MNP2γE22W (TCR, part only; not given: rest of gamma chain, delta chain, part only)
TCR gamma, part: AGHLEQPQISSTKTLSKTARLWCVVSGITISATSVYWYRERPGEVIQFLVSISYDGTVRKESGIPSGKFEVDRIPETSTSTLTIHNVEKQDIATYYCALWE
killing of luciferase transduced RPMI8226 cells by TCR-transduced αβT cells (MNP2 wt killed around 60%) [1]: > 90%

B2: GAB-AJ8sγT81W (TCR, part only; not given: CDR3 delta, constant parts, anti-CD3 scFv, part only)
TCR gamma, part: AGHLEQPQISSTKTLSKTARLECVVSGITISATSVYWYRERPGEVIQFLVSISYDGTVRKESGIPSGKFEVDYIPETSTSWLTIHNVEKQDIATYYCALWE
TCR delta, part: AIELVPEHQTVPVSIGVPATLRCSMKGEAIGNYYINWYRKTQGNTMTFIYREKDIYGPGFKDNFQGDIDIAKNLAVLKILAPSERDEGSYYCACDT
mean fold difference in EC50 of GAB against GAB-AJ8s [2]: 2.8 fold | IFNγ production relative to GAB-AJ8s (GAB expression media, MZ1851RC, 30 µM pamidronate) [1]: 2 fold | fold difference in EC50 of tumor cell killing against GAB-AJ8s [1]: 2.8 fold

B3: GAB-AJ8sδK53S (TCR, part only; not given: CDR3 delta, constant parts, anti-CD3 scFv, part only)
TCR gamma, part: AGHLEQPQISSTKTLSKTARLECVVSGITISATSVYWYRERPGEVIQFLVSISYDGTVRKESGIPSGKFEVDYIPETSTSTLTIHNVEKQDIATYYCALWE
TCR delta, part: AIELVPEHQTVPVSIGVPATLRCSMKGEAIGNYYINWYRKTQGNTMTFIYRESDIYGPGFKDNFQGDIDIAKNLAVLKILAPSERDEGSYYCACDT
IFNγ release after 20 hours of coculture, potency against GAB-AJ8s [3]: 10 fold

B4: GAB-AJ8sγT83I (TCR, part only; not given: CDR3 delta, constant parts, anti-CD3 scFv, part only)
TCR gamma, part: AGHLEQPQISSTKTLSKTARLECVVSGITISATSVYWYRERPGEVIQFLVSISYDGTVRKESGIPSGKFEVDYIPETSTSTLIIHNVEKQDIATYYCALWE
TCR delta, part: AIELVPEHQTVPVSIGVPATLRCSMKGEAIGNYYINWYRKTQGNTMTFIYREKDIYGPGFKDNFQGDIDIAKNLAVLKILAPSERDEGSYYCACDT
IFNγ production relative to GAB-AJ8s (GAB expression media, MZ1851RC, 30 µM pamidronate) [1]: 8.8 fold

B5: GAB-AJ8s-Vγ9 mutation T81I (TCR, part only; not given: CDR3 delta, constant parts, anti-CD3 scFv, part only)
TCR gamma, part: AGHLEQPQISSTKTLSKTARLECVVSGITISATSVYWYRERPGEVIQFLVSISYDGTVRKESGIPSGKFEVDYIPETSTSILTIHNVEKQDIATYYCALWE
TCR delta, part: AIELVPEHQTVPVSIGVPATLRCSMKGEAIGNYYINWYRKTQGNTMTFIYREKDIYGPGFKDNFQGDIDIAKNLAVLKILAPSERDEGSYYCACDT
IFNγ production relative to GAB-AJ8s (GAB expression media, MZ1851RC, 30 µM pamidronate) [1]: 2 fold

B6: GAB-AJ8sγE22W (TCR, part only; not given: CDR3 delta, constant parts, anti-CD3 scFv, part only)
TCR gamma, part: AGHLEQPQISSTKTLSKTARLWCVVSGITISATSVYWYRERPGEVIQFLVSISYDGTVRKESGIPSGKFEVDYIPETSTSTLTIHNVEKQDIATYYCALWE
TCR delta, part: AIELVPEHQTVPVSIGVPATLRCSMKGEAIGNYYINWYRKTQGNTMTFIYREKDIYGPGFKDNFQGDIDIAKNLAVLKILAPSERDEGSYYCACDT
mean fold difference in EC50 of GAB against GAB-AJ8s [4]: 15.5 fold | IFNγ release after 20 hours of coculture, potency against GAB-AJ8s [1]: 10 fold | IFNγ release relative to GAB-AJ8s (GAB expression media, T cells with MZ1851RC or SCC9, 30 µM pamidronate) [1]: 5.6 fold | T cell mediated tumor cell killing (luciferase), activity against GAB-AJ8s [1]: > 10 fold | fold difference in EC50 of tumor cell killing between GAB-AJ8s and GAB-AJ8γE22W [1]: 15.5 fold

B7: GAB-AJ8sγE22WδK53S (TCR, part only; not given: CDR3 delta, constant parts, anti-CD3 scFv, part only)
TCR gamma, part: AGHLEQPQISSTKTLSKTARLWCVVSGITISATSVYWYRERPGEVIQFLVSISYDGTVRKESGIPSGKFEVDYIPETSTSTLTIHNVEKQDIATYYCALWE
TCR delta, part: AIELVPEHQTVPVSIGVPATLRCSMKGEAIGNYYINWYRKTQGNTMTFIYRESDIYGPGFKDNFQGDIDIAKNLAVLKILAPSERDEGSYYCACDT
IFNγ release, potency against the single mutants (combined Vγ9 and Vδ2 mutations; RPMI8226 and SCC9) [1]: 10 fold | T cell mediated killing of RPMI8226 and SCC9, potency against GAB-AJ8s [1]: > 100 fold | T cell mediated killing of RPMI8226 and SCC9, potency against the single Vγ9 or Vδ2 mutants [1]: > 10 fold | IFNγ release, potency against the single mutants (combined Vγ9 and Vδ2 mutations; RPMI8226 and SCC9) [3]: 10 fold | T cell mediated killing of RPMI8226 and SCC9, potency against GAB-AJ8s [3]: > 100 fold | T cell mediated killing of RPMI8226 and SCC9, potency against the single Vγ9 or Vδ2 mutants [3]: > 10 fold

B8: GAB-AJ8sγT81H (TCR, part only; not given: CDR3 delta, constant parts, anti-CD3 scFv, part only)
TCR gamma, part: AGHLEQPQISSTKTLSKTARLWCVVSGITISATSVYWYRERPGEVIQFLVSISYDGTVRKESGIPSGKFEVDYIPETSTSTLTIHNVEKQDIATYYCALWE
TCR delta, part: AIELVPEHQTVPVSIGVPATLRCSMKGEAIGNYYINWYRKTQGNTMTFIYREKDIYGPGFKDNFQGDIDIAKNLAVLKILAPSERDEGSYYCACDT
mean fold difference in EC50 of GAB against GAB-AJ8s [2]: 2.4 fold | IFNγ production relative to GAB-AJ8s (GAB expression media, MZ1851RC, 30 µM pamidronate) [1]: 4.2 fold | fold difference in EC50 of tumor cell killing against GAB-AJ8s [1]: 2.4 fold

B9: GAB-AJ8sδG31V (TCR, part only; not given: CDR3 delta, constant parts, anti-CD3 scFv, part only)
TCR gamma, part: AGHLEQPQISSTKTLSKTARLECVVSGITISATSVYWYRERPGEVIQFLVSISYDGTVRKESGIPSGKFEVDYIPETSTSTLTIHNVEKQDIATYYCALWE
TCR delta, part: AIELVPEHQTVPVSIGVPATLRCSMKGEAIVNYYINWYRKTQGNTMTFIYREKDIYGPGFKDNFQGDIDIAKNLAVLKILAPSERDEGSYYCACDT
IFNγ release after 20 hours of coculture, potency against GAB-AJ8s [3]: 10 fold

B10: GAB-AJ8sγE22WδG31V (TCR, part only; not given: CDR3 delta, constant parts, anti-CD3 scFv, part only)
TCR gamma, part: AGHLEQPQISSTKTLSKTARLWCVVSGITISATSVYWYRERPGEVIQFLVSISYDGTVRKESGIPSGKFEVDYIPETSTSTLTIHNVEKQDIATYYCALWE
TCR delta, part: AIELVPEHQTVPVSIGVPATLRCSMKGEAIVNYYINWYRKTQGNTMTFIYREKDIYGPGFKDNFQGDIDIAKNLAVLKILAPSERDEGSYYCACDT
IFNγ release, potency against the single mutants (combined Vγ9 and Vδ2 mutations; RPMI8226 and SCC9) [1]: 10 fold | T cell mediated killing of RPMI8226 and SCC9, potency against GAB-AJ8s [1]: > 100 fold | T cell mediated killing of RPMI8226 and SCC9, potency against the single Vγ9 or Vδ2 mutants [1]: > 10 fold | IFNγ release, potency against the single mutants (combined Vγ9 and Vδ2 mutations; RPMI8226 and SCC9) [3]: 10 fold | T cell mediated killing of RPMI8226 and SCC9, potency against GAB-AJ8s [3]: > 100 fold | T cell mediated killing of RPMI8226 and SCC9, potency against the single Vγ9 or Vδ2 mutants [3]: > 10 fold

B11: GAB-AJ8s-Vγ9 mutation T83L (TCR, part only; not given: CDR3 delta, constant parts, anti-CD3 scFv, part only)
TCR gamma, part: AGHLEQPQISSTKTLSKTARLECVVSGITISATSVYWYRERPGEVIQFLVSISYDGTVRKESGIPSGKFEVDYIPETSTSTLLIHNVEKQDIATYYCALWE
TCR delta, part: AIELVPEHQTVPVSIGVPATLRCSMKGEAIGNYYINWYRKTQGNTMTFIYREKDIYGPGFKDNFQGDIDIAKNLAVLKILAPSERDEGSYYCACDT
IFNγ production relative to GAB-AJ8s (GAB expression media, MZ1851RC, 30 µM pamidronate) [1]: 2 fold

— patent US20260042836A1
